Measurements from the supplement of paper PMC7125110.
± gives the standard error. This sample holds only a part of the variants without activity.

B1: glmS ribozyme (parent)
chain: AUAAAAGCGCCAGAACUACAGAAAUGUAGUUGACGAGGAGGAGGUUUAUCGAAUUUUCGGCGGAUGCCUCCAAA

Experiments:
Conditions in all cases: with glucosamine-6-phosphate
glucosamine-6-phosphate [1] = variants of: B1; assay: self-cleavage kobs at 160 uM GlcN6P; higher = faster cleavage; RNA array
Method in brief: (§1)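 Glucosamine-6-phosphate (40 μM to 10 mM) in HEPES/KCl/Mg(OAc)2 buffer was flowed over sequenced MiSeq chips, and tiles were imaged over ~14 h. Barcoded ribozyme variants there had been transcribed in situ by E. coli RNA polymerase and were tracked through a hybridised Cy3 probe at 37 °C. One- or two-exponential decay fits to per-tile medians, normalised to baseline and to non-cleaving reference variants, gave kobs. kcat and KM came from weighted Michaelis–Menten fits across concentrations.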

glucosamine-6-phosphate [2] = variants of: B1; assay: self-cleavage kobs at 640 uM GlcN6P; higher = faster cleavage; RNA array
Method in brief: as §1

glucosamine-6-phosphate [3] = variants of: B1; assay: self-cleavage kobs at 2500 uM GlcN6P; higher = faster cleavage; RNA array
Method in brief: as §1

glucosamine-6-phosphate [4] = variants of: B1; assay: self-cleavage kobs at 10000 uM GlcN6P; higher = faster cleavage; RNA array
Method in brief: as §1

| Variant | self-cleavage kobs at 160 uM GlcN6P (glucosamine-6-phosphate [1]) | self-cleavage kobs at 640 uM GlcN6P (glucosamine-6-phosphate [2]) | self-cleavage kobs at 2500 uM GlcN6P (glucosamine-6-phosphate [3]) | self-cleavage kobs at 10000 uM GlcN6P (glucosamine-6-phosphate [4]) |
| --- | --- | --- | --- | --- |
| AUAAAAGAGCCUGAACUACAGAAAUGUAGUUGACGAGGAGGAGGUUUAUCGAAUUUUCGGCGGAUGUCUCCAAA [C8A A12U C67U] | < 1e-05 s⁻¹ | < 1e-05 s⁻¹ | < 1e-05 s⁻¹ | – |
| AUAAAAGAGCCAGAAUUACAGAAAUGUAGUCGACGAGAAGGAGGUUUAUCGAAUUCUCGGCGGAUGCCUCCAAA [C8A C16U U31C G38A U56C] | < 1e-05 s⁻¹ | – | – | < 1e-05 s⁻¹ |
| AUAAAAUCGCCAGAAGUACAGAAAUGUAGUUGACGAGGAGGAUGUUUAUCGAAUUUUCGGCGGAUGGCUCCAAA [G7U C16G G43U C67G] | < 1e-05 s⁻¹ | < 1e-05 s⁻¹ | – | – |
| AUAAAAUCGCCAGAACUACAGAAAUGUAGUUGACGAGGAGGAGGUUUAUCGAAUUUUCGGCAGAUGACUCCAAA [G7U G62A C67A] | < 1e-05 s⁻¹ | < 1e-05 s⁻¹ | < 1e-05 s⁻¹ | – |
| AUAAAAUCGCCAGAACUACAGAAAUGUAGUUGACGAGGAGGAGGUUUAUCGAAUUUUCAGCGGAUGCCUCCAAA [G7U G59A] | < 1e-05 s⁻¹ | < 1e-05 s⁻¹ | < 1e-05 s⁻¹ | < 1e-05 s⁻¹ |
| AUAAAAGAGCCAGAACUACAGAAAUGUAGUUGACGAGGAGGAGGUUUCUCGAAUUUUCGGCGGAUGCGUCCAAA [C8A A48C C68G] | < 1e-05 s⁻¹ | < 1e-05 s⁻¹ | – | – |
| AUAAAAUCGCCAGAACUACAGAAAUGUAGUUGACGAGGAGUAGGUUUAUCGAAUUUUCUGCGGGUGCCUCCAAA [G7U G41U G59U A64G] | < 1e-05 s⁻¹ | – | < 1e-05 s⁻¹ | < 1e-05 s⁻¹ |
| AUAAAAUCGCCAGAACUACAGAAAUGUAGUUGACGAGGAGGAGGUUUAUCGACUUUUCGGCGGAUGCCUCCAAA [G7U A53C] | < 1e-05 s⁻¹ | < 1e-05 s⁻¹ | – | < 1e-05 s⁻¹ |
| AUAAAAUCGCCAGAACUACAGAAAUGUAGUUGACGAGGAGGAGGUUAAUCGCUUGUUCGGUGGAUGCCUCCAAA [G7U U47A A52C A53U U55G C61U] | < 1e-05 s⁻¹ | < 1e-05 s⁻¹ | < 1e-05 s⁻¹ | – |
| AUAAAAUCGCUAGAACUACAGAAAUGUAUAUGACGAGGAGGAGGUUUAUCGAAUUUUCGGCGGAUGCCUCCAAA [G7U C11U G29U U30A] | < 1e-05 s⁻¹ | < 1e-05 s⁻¹ | – | – |
| AUAAAAGAGCCAGAACUACAGAAAUGUAGUUGACGAGUAGGAGGUUUAUCGAAUUUUCGGCGGAUGCCUCCAAA [C8A G38U] | < 1e-05 s⁻¹ | – | < 1e-05 s⁻¹ | – |
| AUAAAAGAACCAGAACUACAGAAAUGUAGUUGACGAUGGGGAGGUUUAUCGAAUUUUCGGCGGAUGCCUCCAAA [C8A G9A G37U A39G] | < 1e-05 s⁻¹ | – | – | – |
| AUAAAAUCGCCAGAACUACAGAAAUGUAGUUGACGAGGAGGAGGUUUAUCGAAUUUUCGCCGGAUUCCUCCAAA [G7U G60C G66U] | < 1e-05 s⁻¹ | – | – | – |
| AUAAAAGAGCCAAAACUACAGAAAUGUAGUUGACGAUGAGGAGGUUUAUCGAAUUUUCGGCGGAUGUUUCCAAA [C8A G13A G37U C67U C68U] | 8.8e-05 ± 3.5e-05 s⁻¹ | 0.000297 ± 8.5e-05 s⁻¹ | – | – |
| AUAAAAUCACCAGAACUACAGAAAUGUAGUUGACGAGGAGGAGGUUUAUCGAAUUUUCGGCGGAUGCCUCCAAA [G7U G9A] | < 1e-05 s⁻¹ | < 1e-05 s⁻¹ | < 1e-05 s⁻¹ | – |
| AUAAAAUCGCCAGAACUACAGAAAUGUAGUUUCCGAGGAGGAGGUUAAUCGAAUUUUCAGCGGAUGCCUCCAAA [G7U G32U A33C U47A G59A] | < 1e-05 s⁻¹ | – | – | – |

| Variant | self-cleavage kobs at 160 uM GlcN6P (glucosamine-6-phosphate [1]) | self-cleavage kobs at 640 uM GlcN6P (glucosamine-6-phosphate [2]) | self-cleavage kobs at 2500 uM GlcN6P (glucosamine-6-phosphate [3]) | self-cleavage kobs at 10000 uM GlcN6P (glucosamine-6-phosphate [4]) |
| --- | --- | --- | --- | --- |
| AUAAAAUCGCCAGAACUACAGAAAUGUAGUUGAAGAGGAGGAGGUUUAUCGAAUUUUCGGCGGAGGCCUCCAAA [G7U C34A U65G] | < 1e-05 s⁻¹ | < 1e-05 s⁻¹ | – | – |
| AUAAAAUGGCCAGAACUACAGAAAUGUAGUUGACGAGGAGGAGGUUUAUCCAAUUUUCGGCGGAUGCCUCCAAA [G7U C8G G51C] | < 1e-05 s⁻¹ | < 1e-05 s⁻¹ | < 1e-05 s⁻¹ | – |
| AUAAAAGAGCCAGAAAUACAGAAAUGUAGUUGACGAGGACGAGGUUUAUCGAAUUUUCGGCGGAGGCCUCCAAA [C8A C16A G40C U65G] | < 1e-05 s⁻¹ | – | < 1e-05 s⁻¹ | – |
| AUAAAAGAGUCAGAACUACAGAAAUGUAGUUGACGAGGAGGAGGUUUAUCGAAUUUUCGGCGGAUGCCUCCAAA [C8A C10U] | < 1e-05 s⁻¹ | < 1e-05 s⁻¹ | – | – |
| AUAAAAUCGCCUGAACUACAGAAAUGUAGUUGACGAGGAGGAGGUUUAUCGAAUUUUCGGCGGAUGUCUCCAAA [G7U A12U C67U] | < 1e-05 s⁻¹ | < 1e-05 s⁻¹ | – | – |
| AUAAAAGAGCCAGACCUACAGAAAUGUAGUUGAAGAGAAGGAGGUUUAUCGAAUUUUCGGCGGAUGCGUCCAAA [C8A A15C C34A G38A C68G] | 0.000422 ± 0.00011 s⁻¹ | 0.000341 ± 8.5e-05 s⁻¹ | 0.00055 ± 0.00013 s⁻¹ | – |
| AUAAAAUCGCCAGAACUACAGAAAUGUAGUUGACGAGGAGGAGGUUUAUCGAAUUUUCGGCGGAUGCCUCUAAA [G7U C71U] | < 1e-05 s⁻¹ | – | – | < 1e-05 s⁻¹ |
| AUAAAAUCGCCAGAACUACAGAAAUGUAGUUGACGAUGAGGAGGUUUAUCGAAUUUUCGGCGGAUGCCUCCAAA [G7U G37U] | < 1e-05 s⁻¹ | – | – | < 1e-05 s⁻¹ |
| AUAAAAUCGCCAGCACUACAGAAAUGUAGUUGACGAGGAGGAGGUUUUUCGAAUUUUCGGCGGAUGCCUCCAAA [G7U A14C A48U] | < 1e-05 s⁻¹ | < 1e-05 s⁻¹ | < 1e-05 s⁻¹ | – |
| AUAAAAUCGCCAGACCUACAGAAAUGUAGUUGACGUGGAGGAGGUUCAUCGAAUUUUCGGCGGAUGCCUCCAAA [G7U A15C A36U U47C] | < 1e-05 s⁻¹ | < 1e-05 s⁻¹ | < 1e-05 s⁻¹ | – |
| AUAAAAGAGCCAUAACUACAGAAAUGUAGUUGACUAGGAGGAGGUUUAUCGAAUUUUCGGCGGAUGCGUCCAAA [C8A G13U G35U C68G] | 0.000168 ± 3.8e-05 s⁻¹ | – | – | – |
| AUAAAAUCGCCAGAACUACAGAAAUGUAGUUGAGGAGGAGGAGGUUUAUCGAAUUUUCGGCGGAUGCCUCCAAA [G7U C34G] | < 1e-05 s⁻¹ | < 1e-05 s⁻¹ | – | – |
| AUAAAAUCGCCAGAACUACAGAAAUGUAGUUGACGAGGAGGAGGUUUAUAGAAUUUUCGGCGGAUGCCUCCAAA [G7U C50A] | < 1e-05 s⁻¹ | < 1e-05 s⁻¹ | – | < 1e-05 s⁻¹ |
| AUAAAAUCCCCAGAACUACAGAAAUGUAGUUGACGAGGAGGAGGUUUAUCGAAUUUUCCGCGGAUGCCGCCAAA [G7U G9C G59C U69G] | < 1e-05 s⁻¹ | < 1e-05 s⁻¹ | – | – |
| AUAAAAUCGGCAGAACUACAGAAAUGUAGUUGUUGAGGAGGAGGUUUAUCGAAUUUUCGGCGGAUGGAUCCAAA [G7U C10G A33U C34U C67G C68A] | 6.38e-05 ± 2.3e-05 s⁻¹ | 3.4e-05 ± 1.7e-05 s⁻¹ | – | – |
| AUAAAAGAGCCAGAACUACAGAAAUGUAGUUGCCUAGGAGGAGGUUUAUCGAAUUUUCGGCGUAUGCCUCCAAA [C8A A33C G35U G63U] | < 1e-05 s⁻¹ | < 1e-05 s⁻¹ | < 1e-05 s⁻¹ | – |
